Measured values as given in patent US20090117043A1 (Human Genome Sciences, published 2009).
Where no end group is shown, it is not given here.

T1: mature form of the neurokinin B polypeptide (amino acids 81 to 90 of SEQ ID NO:2) (human, ends and bridges not checked)
T1 construct: also called NKB; neurokinin 3 (NK3)
T1 peptide: DMHDFFVGLM


Molecular target: T1, mature form of the neurokinin B …
Assay: phage display selection of scFvs; conditions not given

| binding result | Binder |
| --- | --- |
| binds | NO25E05 (scFv) scFv: QVQLQQSGAEVKKPGSSVKVSCKASGDTFSSNTISWVRQAPGQGLEWMGGIIPIIGTPHYAQKFQGRVTITADRSTSTAYMELTNLRSEDTAVYFCARNRVGTSSFDFWGQGTMVTVSSGGGGSGGGGSGGGGSALPVLTQPPSASGTPGQRVTISCSGSSSNIGSNTVNWYQQLPGTAPKLFIYSNNQRPSGVPDRFSGSKSGTSASLAISGLQSEDEADYYCSSWDDSLNLIFGGGTKVTVLG |
| binds | NO23F05 (scFv) scFv: QVQLVQSGAEVKKPGFSVKVSCKASGGSFSNYVISWLRQAPGQGLEWMGGIMPIFGNANYAQKFQDRVTITADKSTSTAYMELSSLRSDDTAVYYCARDQIVVDPVTKGAYYSGLDVWGRGTMVTVSSGGGGSGGGGSGGGGSAQSVLTQPPSASGTPGQRVTISCSGGSSNIGANAITWFQQLPGTAPKLLIYHNNQRPSGVPDRFSGSKSGTSGSLAISGLQSEDEADYYCAVWDNSLNAMLFGGGTKLTVLG |
| binds | NO15F10 (scFv) scFv: QVQLQQSGAEVKKPGSSVKVSCKASGGTFSSYAISWVRQAPGQGLEWMGGSIPKFRTANYAKKFQGRVTITADESTSTAYMELSSLRSDDTAVYYCARGSAYNLRNAFDIWGQGTTVTVSSGGGGSGGGGSGGGGSAQSVVTQPPSVSAAPGQRVTISCSGSSSNIANNYVSWYQQLPGTAPKLLIYDNNKRPSGIPDRFSGSKSGTSATLGITGLQTGDEADYYCGTWDSSLSAYVFGTGTKVTVLG |
| binds | NO24D08 (scFv) scFv: EVQLVQSGAEVKRPGASVKISCRTSGYTFTSYYIHWVRQAPGQGLEWLAIINPTAGNTYYTQDFQDRVTVTRDTSTSTVYMELRGLNSEDTAVYYCASPYGVRNAFDVWGQGTMVTVSSGGGGSGGGGSGGGGSQSVLTQPPSVSAAPGQKVTISCSGSTSNIGNNYVSWYQQHPGKAPKLMIYDVSKRPSGVPDRFSGSKSGNSASLDISGLQSEDEADYYCAAWDDSLSEFLFGTGTKLTVLG |
| binds | NO23E01 (scFv) scFv: QVQLVQSGGGLVQPGRSLRLSCAASGFTFDDYAMHWVRQAPGKGLEWVSGISWNSASIGYADSVKGRFTISRDNAKNSLYLQMNSLRGEDTALYYCAKGARDALDIWGKGTLLTVSSGGGGSGGGGSGGGGSQSVLTQPPSVSAAPGQKVTISCSGSTSNIGNNYVSWYQQHPGKAPKLMIYDVSKRPSGVPDRFSGSKSGNSASLDISGLQSEDEADYYCAAWDDSLSEFLFGTGTKLTVLG |
| binds | NO24C05 (scFv) scFv: QVQLQQSGPGLVKPSQTLSLTCAISGDSVSSNTAAWSWIRQSPSRGLEWLGRTYYSRSKWYKDYAVSVKSRITINPDTSKNQFSLQLDSVTPEDTAVYYCTREGYYDYSGVVDYWGQGTTVIVSSGGGGSGGGGSGGGGSQSVLTQPPSASGSPGQSVTISCTGTSSDVGGYNYVSWYQQHPGKAPKFMIYDVSKRPSGVSNRFSGSKSGNTASLTISGVQAEDEADYYCSSYTSASTVIFGGGTKLTVLG |
| binds | NO24F09 (scFv) scFv: QVQLQQSGAEVKKPGASVKVSCKASGYTFTGYYMHWVRQAPGQRLEWMGGILPFFGTTSYAQNFHGRLTITADESTRTAYMELSSLKSEDTAVYYCARDESADPKNAFDIWGRGTMVTVSSGGGGSGGGGSGGGGSQSVLTQPPPVSAAPGQKVTISCSGSTSNIGNNYVSWYQQRPGKAPKLMIYDVSKRPSGVPDRFSGSKSGNSASLDISGLQSEDEADYYCAAWDDSLSEFLFGTGTKLTVLG |
| binds | NO24F07 (scFv) scFv: QVQLQQSGAEVKKPGSSVNVSCKASGGTFDTFGISWVRQAPGKGLEWMGVIAHDGSISYYADSVKGRFTFSRDNSKNTVSLQMNSPRPEDTAVYYCAKGEYDSSGYNAFDIWGKGTLVTVSSGGGGSGGGGSGGGGSQSVLTQPPSVSAAPGQKVTVSCSGSTSNIGNNYVSWYQQHPGKAPKLMIYDVSKRPSGVPDRFSGSKSGNSASLDISGLQSEDEADYYCAAWDDSLSEFLFGTGTKLTVLG |
| binds | NO15D08 (scFv) scFv: QVQLLQSAPEVKKPGSSVRVSCKTSGGTFSSQLINWVRQPPGQGPEWMGGIIPIFGTANYAQKFQGRVTITADESTSTAYMELSSLRSEDTAVYYCARDLTAGRFDAFHIWGRGTLVTVSSGGGGSGGGGSGGGGSQSVLTQPPSVSAAPGQKVTISCSGSTSNIGNNYVSWYQQHPGKAPKLMIYDVSKRPSGVPDRFSGSKSGNSASLDISGLQSEDEADYYCAAWDDSLSEFLFGTGTKLTVLG |
| binds | NO24B01 (scFv) scFv: QVQLQQSGNEVKKPGSSVKISCKASGAPFNSYVISWVRQAPGQGLEWVGGVVPIFGTAHYAHQFQGRVTIIADKSTSTVYMELRGLTSDDTAEYFCARQGPYGKLDDWGQGTMVTVSSGGGGSGGGGSGGGGSALSYELTQPPSASGTPGQRVTISCSGSSSNIGSNYVYWYQQFPGTAPKLLMYRNNQRPSGVPDRFSGSKFGTSASLAISGLRSEDEADYYCAAWDDSLTGRVFGGGTKVTVLG |

Continued, binder first:

| Binder | binding result |
| --- | --- |
| NO24D01 (scFv) scFv: QVQLQQSGGGVVQPGRSLRLSCAASGFTFDDYAMHWVRQAPGKGLEWVSGISWNSGSIGYADSVKGRFTISRDNAKNSLYLQMNSLRAEDTALYYCAKTGGGNSLDYWGRGTLVTVSSGGGGSGGGGSGGGGSQSVLTQPPSVSAAPGQKVTISCSGSTSNIGNNYVSWYQQHPGKAPKLMIYDVSKRPSGVPDRFSGSKSGNSASLDISGLQSEDEADYYCAAWDDSLSEFLFGTGTKLTVLG | binds |
| NO24E07 (scFv) scFv: QVQLQESGGGLEQPGRSLRLSCTASGFTFDDYPMHWVRQAPGKGLEWVSGISGNSDRIAYADSVKGRFTISRDNSKNTLWLQMNSLRAEDTAIYYCARAARNWFDPWGQGTLVTVSSGGGGSGGGGSGGGGSQSVLTQPPSVSAAPGQKVTISCSGSTSNIGNNYVSWYQQHPGKAPKLMIYDVSKRPSGVPDRFSGSKSGNSASLDISGLQSEDEADYYCAAWDDSLSEFLFGTGTKLTVLG | binds |
| N015E08 (scFv) scFv: QMQLQESGAEVKKPGSSVKVSCKASGDTFRSYIISWVRQAPGQGLEWMGGIIPMFGTTNYAQQFQGKVTITADDSTSTSYMELRSLRSDDTAVYYCARGTNYMDVWGQGTTVTVSSGGGGSGGGGSGGGGSQSVLTQPPSVSAAPGQKVTISCSGSTSNIGNNYVSWYQQHPGKAPKLMIYDVSKRPSGVPDRFSGSKSGNSASLDISGLQSEDEADYYCAAWDDSLSEFLFGTGTKLTVLG | binds |
| NO24B07 (scFv) scFv: QVQLQQSGAEVKKPGSSVKVSCKASGGTFSSYAISWVRQAPGQGLEWMGGSIPKFRTANYAKKFQGRVTITADESTSTAYMELSSLRSDDTAVYYCARGSTYNLRNAFDIWGKGTLVTVSSGGGGSGGGGSGGGGSAQSVVTQPPSASGTPGQRVTISCSGGSSNIGRNTVNWYQQVPGTAPKLLIYTNNQRPSGVPDRFSGSKSGTSASLAISGLQSEDEADYYCAAWDDSLNDVEFGGGTKLTVLG | binds |
| N024C01 (scFv) scFv: QVQLQQSGAEVKNPGSSVKVSCKPSRDTLSGDNFSSSVFSWVRQAPGQGLEWMGGIIPIFGVANYAQKFQPRVTISADMSTNTAYMELSSLRSEDTAVYYCASTWELRNAFDIWGKGTLVTVSSGGGGSGGGGSGGGGSQSVLTQPPSVSAAPGQKVTISCSGSTSNIGNNYVSWYQQHPGKAPKLMIYDVSKRPSGVPDRFSGSKSGNSASLDISGLQSEDEADYYCAAWDDSLSEFLFGTGTKLTVLG | binds |
| NO15D10 (scFv) scFv: QVQLVQSGAEVKKPGSSVRISCKASGGSFRTYVVSWVRQAPGQGLEWMGGIIPVYGTPNYAQKFQGRVTITADEPTRTTYMELSSLRSEDTGVYYCARNGGGLDYWGQGTMVTVSSGGGGSGGGGSGGGGSQSVLTQPPSVSAAPGQKVTISCSGSTSNIGNNYVSWYQQHPGKAPKLMIYDVSKRPSGVPDRFSGSKSGNSASLDISGLQSEDEADYYCAAWDDSLSEFLFGTGTKLTVLG | binds |
| NO25C01 (scFv) scFv: QVQLVQSGAEVKKPGTSVKVSCKAAGDTFRSYIISWVRQAPGQGLEWVGGIIPMFGTSNYAQKFQGRVTITADDSTSTAYMELSSLRSEDTAVYYCARTAQGGSYYNYWGQGTPVTVSSGGGGSGGGGSGGGGSQSVLTQPPSVSAAPGQKVTISCSGSTSNIGNNYVSWYQQHPGKAPKLMIYDVSKRPSGVPDRFSGSKSGNSASLDISGLQSEDEADYYCAAWDDGLSEFLFGTGTKLTVLG | binds |
